Test results: patent US20220306683A1, “PROXIMITY-BASED LABELING SYSTEMS AND APPLICATIONS THEREOF” (The Trustees of Princeton University, priority 2019, published 2022)
Ends that are not written are not given here.

Biological target: E3 ligase MDM2 (Homo sapiens, UniProt Q00987)
Assay: Peptide-photocatalyst conjugate labeling of MDM2 versus BSA
Conditions: peptide conjugated to photocatalyst through azido-lysine

E3 ligase MDM2, sequence (Q00987 whole entry): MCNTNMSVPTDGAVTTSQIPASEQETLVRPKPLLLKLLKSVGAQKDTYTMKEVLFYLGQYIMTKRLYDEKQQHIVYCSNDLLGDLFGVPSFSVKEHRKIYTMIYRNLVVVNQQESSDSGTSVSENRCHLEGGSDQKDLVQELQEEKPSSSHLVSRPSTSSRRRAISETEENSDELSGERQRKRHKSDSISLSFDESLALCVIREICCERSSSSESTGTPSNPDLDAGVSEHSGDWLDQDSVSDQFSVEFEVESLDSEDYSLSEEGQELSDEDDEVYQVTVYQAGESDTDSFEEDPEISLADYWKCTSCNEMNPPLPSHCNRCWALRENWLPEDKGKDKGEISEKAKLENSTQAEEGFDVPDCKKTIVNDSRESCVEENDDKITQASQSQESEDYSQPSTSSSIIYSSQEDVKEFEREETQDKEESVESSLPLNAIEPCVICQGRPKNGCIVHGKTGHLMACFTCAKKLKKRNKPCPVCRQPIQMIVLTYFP

Substance: ATSP7041: α-helical stapled cyclic peptide targeting MDM2, conjugated to the photocatalyst through a modified azido-lysine (KLTFAEYWAQAASAA; staple (positions not given here); also: stapled, places not given here, photocatalyst conjugated via azido-lysine, place not given here)
- enrichment of target protein MDM2 compared to free photocatalyst control: 3 fold
